{
  "source": "paper PMC4980113",
  "key": {"[1]": {"target": "Dip (gp37, degradosome interacting protein) of giant phage φKZ, His-tagged (Pseudomonas phage φKZ)", "experiment": "AUC; analytical ultracentrifugation of Dip in solution; data not shown"}, "[2]": {"target": "Dip (gp37, degradosome interacting protein) of giant phage φKZ, His-tagged (Pseudomonas phage φKZ)", "experiment": "ELISA; 350 nM Dip (C-terminal his-tag) held on Ni-NTA HisSorb strips, increasing amounts of RNA degradosome, detected by anti-Strep-tag II-HRP"}},
  "data": [
    {"substance": "Dip (gp37, degradosome interacting protein) of giant phage φKZ, His-tagged (natural protein)", "values": [
      {"measurement": "stoichiometry N", "setting": "[1]", "result": 2}
    ]},
    {"substance": "RNA degradosome of P. aeruginosa, purified (C-terminal Strep-tag II on RNase E) (from UniProt Q9HZM8 1-1057) (complex)", "values": [
      {"measurement": "Dip protomers per degradosome protomer at saturation of the signal (Dip protomers per degradosome protomer)", "setting": "[2]", "result": 10}
    ]}
  ]
}
